Patent publication US20190203229, “cis AND trans REQUIREMENTS FOR […] RESOLUTION OF HUMAN BOCAVIRUS 1” (University of Iowa Research Foundation, published 2019)

Biological target: GST (UniProt P08515 P08515:1-218)
Assay: EMSA; negative control
Settings: label: 32P or biotin

Chain of GST (P08515 whole entry, one chain of several): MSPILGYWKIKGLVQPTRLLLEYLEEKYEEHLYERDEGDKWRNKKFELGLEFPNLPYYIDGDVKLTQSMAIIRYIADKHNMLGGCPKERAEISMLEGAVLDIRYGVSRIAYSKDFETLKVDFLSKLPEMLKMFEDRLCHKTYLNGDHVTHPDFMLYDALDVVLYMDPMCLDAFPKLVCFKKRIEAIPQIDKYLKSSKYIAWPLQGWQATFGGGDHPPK

B1: B19V Ori (dsDNA)
DNA 1: GCCGCCGGTCGCCGCCGGTAGGCGGGACTTCCGGTACA
DNA 2: TGTACCGGAAGTCCCGCCTACCGGCGGCGACCGGCGGC
B1: no binding.
